# Non-standard residues stand in square brackets, D forms with d. No end group written: not given here. pS = N[C@@H](COP(=O)(O)O)C(=O)O
# T1: TSG101 UEV (human, UniProt Q99816 2-145)
# T1 chain: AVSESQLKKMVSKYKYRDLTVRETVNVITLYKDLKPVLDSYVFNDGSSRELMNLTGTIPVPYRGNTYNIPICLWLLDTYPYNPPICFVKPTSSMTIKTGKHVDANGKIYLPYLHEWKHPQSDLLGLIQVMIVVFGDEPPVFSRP
# T2: Clathrin N‐terminal domain (NTD) (human, UniProt Q00610 1-364)
# T2 chain: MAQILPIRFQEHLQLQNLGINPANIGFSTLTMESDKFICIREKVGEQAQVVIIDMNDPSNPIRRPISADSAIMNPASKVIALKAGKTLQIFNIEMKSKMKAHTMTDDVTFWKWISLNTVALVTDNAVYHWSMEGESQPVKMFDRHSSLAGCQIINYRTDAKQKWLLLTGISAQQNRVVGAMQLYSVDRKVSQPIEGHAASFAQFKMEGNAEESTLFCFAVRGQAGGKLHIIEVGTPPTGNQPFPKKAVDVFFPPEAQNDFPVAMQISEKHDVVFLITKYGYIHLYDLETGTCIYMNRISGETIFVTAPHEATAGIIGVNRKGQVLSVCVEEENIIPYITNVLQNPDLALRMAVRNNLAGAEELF
# Target: SNX27 PDZ (human, UniProt Q96L92 43-136)
# Experiment: FP
row,Binder,IC50
1,"NLLLERDTSFTVCPD [CDC25C_(30–44), wild‐type]",210 µM
2,"NLLLERDT[pS]FTVCPD [CDC25C_(30–44), phosphorylated (pS)]",1000 µM
3,"GMVSSTSFNGG [DAXX_(606–616), wild‐type]",1300 µM
4,"NLLLERDTEFTVCPD [CDC25C_(30–44), phosphomimetic (E)]",1800 µM

# Target: MAP1LC3A (human)
# Experiment: FP
row,Binder,IC50
1,"KKQLKRFSTEEFVLL [ATG4C_(444–458), wild‐type]",17 µM
2,"KKQLKRF[pS]TEEFVLL [ATG4C_(444–458), phosphorylated (pS)]",5.5 µM
3,"KKQLKRFETEEFVLL [ATG4C_(444–458), phosphomimetic (E)]",11 µM

# Target: T1, TSG101 UEV
# Experiment: FP
row,Binder,IC50
1,"NGCSSPTAPLSPMSP [GJA1_(269–283), wild‐type]",465 µM
2,"HSGNVTPTAPPYLQES [PIP4P2_(17–32), wild‐type]",29 µM
3,"QSIAREPSAPSIPTP [PDCD6IP_(711–725), wild‐type]",34 µM

# Target: T2, Clathrin N‐terminal domain (NTD)
# Experiment: FP
row,Binder,IC50
1,"GGNLITFSPLQPGEF [HURP_(832–846), wild‐type]",318 µM
2,"GGNLITFEPLQPGEF [HURP_(832–846), phosphomimetic (E)]",70 µM
3,GGNLITF[pS]PLQPGEF [pS839 HURP_(832–846)],11 µM
4,YRHISFGGNLITF[pS]PLQPGEF [pS839 HURP_(826–846) peptide],11 µM
